Biological target: the molecule itself
Test: non-reduced SDS-PAGE; SEC-purified denatured monomeric MB109 refolded by rapid dilution (CHAPS, NaCl, EDTA, GSH/GSSG, Tris-HCl, 4°C, 7 days); supernatants run on non-reduced 12% SDS-PAGE; disulfide-linked dimer

B1: MB109 (E. coli-derived mature domain of human bone morphogenetic protein-9, refolded functional dimer) (ligand)
chain: MSAGAGSHCQKTSLRVNFEDIGWDSWIIAPKEYEAYECKGGCFFPLADDVTPTKHAIVQTLVHLKFPTKVGKACCVPTKLSPISVLYKDDMGVPTLKYHYEGMSVAECGCR
notes: engineered first methionine (translational start) directly before Ser320; mature domain of human BMP-9, Ser320-Arg429 (110 amino acids) of the 429-residue polypeptide; Disulfide-linked homodimer of the mature domain; pET21a between NdeI and XhoI with a 3' stop codon; also called hBMP-9 mature domain; human BMP-9
- stoichiometry N: 2
